From IntAct's records for PubMed 31515488

B1: Zinc finger protein Aiolos (Homo sapiens), Q9UKT9 (parent)
chain: MEDIQTNAELKSTQEQSVPAESAAVLNDYSLTKSHEMENVDSGEGPANEDEDIGDDSMKVKDEYSERDENVLKSEPMGNAEEPEIPYSYSREYNEYENIKLERHVVSFDSSRPTSGKMNCDVCGLSCISFNVLMVHKRSHTGERPFQCNQCGASFTQKGNLLRHIKLHTGEKPFKCHLCNYACQRRDALTGHLRTHSVEKPYKCEFCGRSYKQRSSLEEHKERCRTFLQSTDPGDTASAEARHIKAEMGSERALVLDRLASNVAKRKSSMPQKFIGEKRHCFDVNYNSSYMYEKESELIQTRMMDQAINNAISYLGAEALRPLVQTPPAPTSEMVPVISSMYPIALTRAEMSNGAPQELEKKSIHLPEKSVPSERGLSPNNSGHDSTDTDSNHEERQNHIYQQNHMVLSRARNGMPLLKEVPRSYELLKPPPICPRDSVKVINKEGEVMDVYRCDHCRVLFLDYVMFTIHMGCHGFRDPFECNMCGYRSHDRYEFSSHIARGEHRALLK
partner: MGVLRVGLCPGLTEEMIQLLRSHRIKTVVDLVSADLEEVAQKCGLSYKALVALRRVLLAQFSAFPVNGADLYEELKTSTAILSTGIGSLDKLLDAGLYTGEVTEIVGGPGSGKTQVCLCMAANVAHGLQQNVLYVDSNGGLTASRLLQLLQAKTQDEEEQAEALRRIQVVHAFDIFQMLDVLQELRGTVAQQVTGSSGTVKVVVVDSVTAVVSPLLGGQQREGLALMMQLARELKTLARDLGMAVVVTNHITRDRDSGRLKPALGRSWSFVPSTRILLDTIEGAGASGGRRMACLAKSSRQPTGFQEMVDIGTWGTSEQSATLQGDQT
B2: Zinc finger CCHC domain-containing protein 10 (Homo sapiens), Q8TBK6 (parent)
chain: MATPMHRLIARRQAFDTELQPVKTFWILIQPSIVISEANKQHVRCQKCLEFGHWTYECTGKRKYLHRPSRTAELKKALKEKENRLLLQQSIGETNVERKAKKKRSKSVTSSSSSSSDSSASDSSSESEETSTSSSSEDSDTDESSSSSSSSASSTTSSSSSDSDSDSSSSSSSSTSTDSSSDDEPPKKKKKK
partner: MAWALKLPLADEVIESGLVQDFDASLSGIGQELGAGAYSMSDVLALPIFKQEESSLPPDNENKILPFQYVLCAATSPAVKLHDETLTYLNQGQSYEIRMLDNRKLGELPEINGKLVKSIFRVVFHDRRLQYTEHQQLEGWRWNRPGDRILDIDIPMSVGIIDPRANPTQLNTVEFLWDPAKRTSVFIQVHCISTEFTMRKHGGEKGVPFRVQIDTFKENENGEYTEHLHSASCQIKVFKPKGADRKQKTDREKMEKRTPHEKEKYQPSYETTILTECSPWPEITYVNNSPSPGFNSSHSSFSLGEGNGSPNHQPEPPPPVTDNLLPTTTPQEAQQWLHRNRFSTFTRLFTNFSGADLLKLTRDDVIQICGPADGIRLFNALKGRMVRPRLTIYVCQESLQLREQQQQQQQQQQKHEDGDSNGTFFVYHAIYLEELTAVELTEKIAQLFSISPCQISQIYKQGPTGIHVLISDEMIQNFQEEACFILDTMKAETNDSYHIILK
B3: Meiotic recombination protein DMC1/LIM15 homolog (Homo sapiens), Q14565 (parent)
chain: MKEDQVVAEEPGFQDEEESLFQDIDLLQKHGINVADIKKLKSVGICTIKGIQMTTRRALCNVKGLSEAKVDKIKEAANKLIEPGFLTAFEYSEKRKMVFHITTGSQEFDKLLGGGIESMAITEAFGEFRTGKTQLSHTLCVTAQLPGAGGYPGGKIIFIDTENTFRPDRLRDIADRFNVDHDAVLDNVLYARAYTSEHQMELLDYVAAKFHEEAGIFKLLIIDSIMALFRVDFSGRGELAERQQKLAQMLSRLQKISEEYNVAVFVTNQMTADPGATMTFQADPKKPIGGHILAHASTTRISLRKGRGELRIAKIYDSPEMPENEATFAITAGGIGDAKE
partner: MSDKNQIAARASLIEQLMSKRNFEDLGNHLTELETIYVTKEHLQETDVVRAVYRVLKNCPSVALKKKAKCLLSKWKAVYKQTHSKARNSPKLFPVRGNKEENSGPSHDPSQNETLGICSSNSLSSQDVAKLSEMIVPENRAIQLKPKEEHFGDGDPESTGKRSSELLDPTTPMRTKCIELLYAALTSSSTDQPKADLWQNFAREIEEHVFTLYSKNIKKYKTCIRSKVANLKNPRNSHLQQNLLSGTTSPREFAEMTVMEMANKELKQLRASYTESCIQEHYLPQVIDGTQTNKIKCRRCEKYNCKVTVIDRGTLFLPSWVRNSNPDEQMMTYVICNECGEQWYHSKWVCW
B4: Protein FAM9B (Homo sapiens), Q8IZU0 (parent)
chain: MAAWGKKHAGKDPVRDECEERNRFTETREEDVTDEHGEREPFAETDEHTGANTKKPEDTAEDLTAKRKRMKMDKTCSKTKNKSKHALRKKQLKRQKRDYIHSLKLLNVLEEYITDEQKEEEEEEGEEEELIRIFQEQQKKWQQYRSVRRERLKEMKLLRDQFVKALEDFEDLCDRVFSDEDSELDN
partner: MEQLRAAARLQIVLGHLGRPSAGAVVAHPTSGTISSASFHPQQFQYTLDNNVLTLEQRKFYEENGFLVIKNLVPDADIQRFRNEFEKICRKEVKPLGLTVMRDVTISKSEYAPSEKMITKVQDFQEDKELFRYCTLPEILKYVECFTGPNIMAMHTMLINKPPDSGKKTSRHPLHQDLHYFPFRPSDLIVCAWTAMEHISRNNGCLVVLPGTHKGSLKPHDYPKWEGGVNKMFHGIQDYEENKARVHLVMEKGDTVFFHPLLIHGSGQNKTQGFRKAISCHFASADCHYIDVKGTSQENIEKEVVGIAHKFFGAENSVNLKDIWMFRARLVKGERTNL
B5: Consortin (Homo sapiens), Q6PJW8 (parent)
chain: MDDSDTPTYYLQIEPQDGCHPGDSVERSVTCLPSASDENENQLDGDGHEHLTSSDSAMGKPQVSEQDSLNNNESCTLSCEVAAGENLQNTLCEASRDEQAFLGKDKKIPGKRSPRSKKGTAKKIPPGLFSGDIAPLMQEKVLSAVTYAVDDEEAAEVNANEQPEAPKLVLQSLFSLIRGEVEQLDSRALPLCLHQIAESYFQEEDYEKAMKFIQLERLYHEQLLANLSAIQEQWETKWKTVQPHTVTALRNSEKGFNGEDFERLTKICATHQDPLLSKHKIAAVEKSQERKCSTQLLVSEDPKEGGATTKESESKTCLGTESSKESQHTVEPLGSSPCCHQMDVQTDSPSLSVTAGKDHMEELLCSAEATLALHTQSSETAGSPSGPDSSEDACEDDSRLQLAQTEACQDVARIEGIAEDPKVFLSSKSKTEPLISPGCDRIPPALISEGKYSQAQRKELRLPLRDASEALPTDQLENNELNELQQPDLTDSDGKSPQAQADSDGSENVLCGNNQISDLGILLPEVCMAPEEKGDKDDQLNKETEDYLNSLLEGCLKDTEDSLSYEDNQDDDSDLLQDLSPEEASYSLQENLPSDESCLSLDDLAKRIEIAEVVPTEGLVSILKKRNDTVGDHPAQMQHKPSKRRVRFQEIDDSLDQDEVGGGSCILLVLLCIATVFLSVGGTALYCTFGDMESPVCTDFADNMDFYYTKLLQGVAELKHWIYLS
B6: Protein LRATD2 (Homo sapiens), Q96KN1 (parent)
chain: MGNQVEKLTHLSYKEVPTADPTGVDRDDGPRIGVSYIFSNDDEDVEPQPPPQGPDGGGLPDGGDGPPPPQPQPYDPRLHEVECSVFYRDECIYQKSFAPGSAALSTYTPENLLNKCKPGDLVEFVSQAQYPHWAVYVGNFQVVHLHRLEVINSFLTDASQGRRGRVVNDLYRYKPLSSSAVVRNALAHVGAKERELSWRNSESFAAWCRYGKREFKIGGELRIGKQPYRLQIQLSAQRSHTLEFQSLEDLIMEKRRNDQIGRAAVLQELATHLHPAEPEEGDSNVARTTPPPGRPPAPSSEEEDGEAVAH
partner: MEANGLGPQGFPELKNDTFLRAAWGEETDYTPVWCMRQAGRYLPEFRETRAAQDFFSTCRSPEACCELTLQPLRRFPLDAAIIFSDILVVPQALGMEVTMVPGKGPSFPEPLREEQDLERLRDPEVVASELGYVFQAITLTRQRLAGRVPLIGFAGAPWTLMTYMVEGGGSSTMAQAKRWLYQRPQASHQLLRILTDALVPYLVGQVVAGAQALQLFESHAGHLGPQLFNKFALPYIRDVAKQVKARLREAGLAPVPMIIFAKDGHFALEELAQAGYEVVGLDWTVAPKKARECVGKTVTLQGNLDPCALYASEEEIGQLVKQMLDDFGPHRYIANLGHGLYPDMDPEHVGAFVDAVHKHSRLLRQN
B7: Proto-oncogene serine/threonine-protein kinase mos (Homo sapiens), P00540 (parent)
chain: MPSPLALRPYLRSEFSPSVDARPCSSPSELPAKLLLGATLPRAPRLPRRLAWCSIDWEQVCLLQRLGAGGFGSVYKATYRGVPVAIKQVNKCTKNRLASRRSFWAELNVARLRHDNIVRVVAASTRTPAGSNSLGTIIMEFGGNVTLHQVIYGAAGHPEGDAGEPHCRTGGQLSLGKCLKYSLDVVNGLLFLHSQSIVHLDLKPANILISEQDVCKISDFGCSEKLEDLLCFQTPSYPLGGTYTHRAPELLKGEGVTPKADIYSFAITLWQMTTKQAPYSGERQHILYAVVAYDLRPSLSAAVFEDSLPGQRLGDVIQRCWRPSAAQRPSARLLLVDLTSLKAELG
partner: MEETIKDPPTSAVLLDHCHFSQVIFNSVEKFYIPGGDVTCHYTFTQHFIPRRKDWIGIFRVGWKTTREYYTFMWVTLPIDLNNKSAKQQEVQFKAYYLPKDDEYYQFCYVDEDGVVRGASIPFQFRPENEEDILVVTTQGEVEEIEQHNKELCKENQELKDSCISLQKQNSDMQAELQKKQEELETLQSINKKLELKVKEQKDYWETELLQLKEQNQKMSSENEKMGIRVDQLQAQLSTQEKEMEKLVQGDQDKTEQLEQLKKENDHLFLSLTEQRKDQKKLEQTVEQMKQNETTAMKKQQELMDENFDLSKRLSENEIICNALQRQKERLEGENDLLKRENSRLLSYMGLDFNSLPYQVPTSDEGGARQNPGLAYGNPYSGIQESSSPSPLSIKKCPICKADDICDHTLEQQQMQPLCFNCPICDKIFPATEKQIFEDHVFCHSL
B8: Zinc finger protein 511 (Homo sapiens), Q8NB15 (parent)
chain: MQLPPALCARLAAGPGAAEPLPVERDPAAGAAPFRFVARPVRFPREHQFFEDGDVQRHLYLQDVIMQVADVPEKPRVPAFACQVAGCCQVFDALDDYEHHYHTLHGNVCSFCKRAFPSGHLLDAHILEWHDSLFQILSERQDMYQCLVEGCTEKFKTSRDRKDHMVRMHLYPADFRFDKPKKSRSPASAEAPGDSGERSEGEAMEICSEPVAASPAPAGERRIYRHRIPSTICFGQGAARGFKSNKKKTKQC
partner: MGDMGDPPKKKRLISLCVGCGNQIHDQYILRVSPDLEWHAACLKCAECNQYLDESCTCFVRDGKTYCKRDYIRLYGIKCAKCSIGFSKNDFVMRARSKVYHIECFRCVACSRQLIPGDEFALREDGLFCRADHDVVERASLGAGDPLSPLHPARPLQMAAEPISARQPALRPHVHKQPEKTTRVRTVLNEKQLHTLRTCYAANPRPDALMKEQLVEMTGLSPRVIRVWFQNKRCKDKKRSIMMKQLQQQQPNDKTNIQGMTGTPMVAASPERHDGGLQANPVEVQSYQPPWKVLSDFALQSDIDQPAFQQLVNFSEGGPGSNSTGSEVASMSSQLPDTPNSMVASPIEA

Variants of: B1
Settings: with ra51d_human RAD51D

| effect of a mutation on the interaction | Variant |
| --- | --- |
| with no effect | N119D |
| with no effect | A24V |

Variants of: B2
Settings: with tfcp2_human TFCP2, Q12800

| effect of a mutation on the interaction | Variant |
| --- | --- |
| with no effect | S153P |

Variants of: B3
Settings: with teanc_human TCEANC

| effect of a mutation on the interaction | Variant |
| --- | --- |
| with no effect | I288T |

Variants of: B4
Settings: with pahx_human PHYH

| effect of a mutation on the interaction | Variant |
| --- | --- |
| with no effect | R23H |

Variants of: B5
Settings: with rop1a_human ROPN1, Q9HAT0
rop1a_human ROPN1, Q9HAT0, sequence (Q9HAT0 whole entry): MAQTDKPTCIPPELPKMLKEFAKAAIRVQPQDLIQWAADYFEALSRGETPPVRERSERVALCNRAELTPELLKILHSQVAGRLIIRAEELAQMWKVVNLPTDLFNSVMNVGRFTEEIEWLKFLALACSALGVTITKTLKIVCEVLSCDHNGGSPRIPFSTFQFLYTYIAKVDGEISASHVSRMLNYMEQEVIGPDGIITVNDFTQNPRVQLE

| effect of a mutation on the interaction | Variant |
| --- | --- |
| with no effect | R399C |
| with no effect | Q183R |

Variants of: B6
Settings: with dcup_human UROD

| effect of a mutation on the interaction | Variant |
| --- | --- |
| with no effect | P71T |

Variants of: B7
Settings: with caco2_human CALCOCO2, Q13137

| effect of a mutation on the interaction | Variant |
| --- | --- |
| with no effect | A105S |
| disrupting interaction strength | A123T |

Variants of: B8
Settings: with isl1_human ISL1, P61371

| effect of a mutation on the interaction | Variant |
| --- | --- |
| with no effect | S195N |
